The text below walks through data of publication PMC11050134.

Targets include asialo-transferrin (UniProt P02787); transferrin (UniProt P02787); asialo-fetuin (UniProt P12763); fetuin (UniProt P12763).
For assay [1], the target named is porcine thyroglobulin (porcine) (UniProt F1RRV3).
The target of assay [2] is asialo-bovine submaxillary mucin (bovine).
In assay [3] the target is bovine submaxillary mucin (bovine).
Assay [4] concerns the target asialo-porcine thyroglobulin (porcine) (UniProt F1RRV3).
In assay [5] the target is influenza viral envelope hemagglutinin, vaccine preparation (Denka-Seken) with a mixture of the hema (influenza A virus (H1N1, H3N2) and influenza B virus). The assay is described as follows: SPR; BIAcore X100; […]; HBS-N (10 mM HEPES, 150 mM NaCl, pH 7.4), 30 μL/min, […], dissociation 600 s; Langmuir 1:1 fit.
Assay [6] addresses Halimeda borneensis lectin HBL40 (Halimeda borneensis). The assay can be described thus: SDS-PAGE, non-reducing against reducing; purified HBL40 on 12% gel with and without 2% 2-mercaptoethanol, Coomassie stain; about 40 kDa non-reducing, 20 kDa reducing.

By Kd is commonly meant the free concentration of one partner at which half of the binding sites on the other are occupied at equilibrium, for simple one-to-one binding. In general, koff refers to the first-order rate constant of dissociation. By kon is commonly meant the rate constant with which the complex forms. As usually defined, the stoichiometry N is the number of molecules, sites or subunits per partner or assembly. With “Halimeda borneensis lectin HBL40 (natural protein)”, the hemagglutination inhibition (trypsin-treated rabbit erythrocytes): lowest concentration of glycoprotein that completely inhibited the hemagglutination activity of a lectin solution of titer 4 with asialo-transferrin amounted to 62.5 µg/mL; in assay [1] it was 31.3 µg/mL; in assay [2] it was 31.3 µg/mL; in the assay with transferrin, 500 µg/mL; with asialo-fetuin, 125 µg/mL; in the assay with fetuin it was 1000 µg/mL. Further, the hemagglutination inhibition (trypsin-treated rabbit erythrocytes): lowest concentration of glycoprotein that completely inhibited the hemagglutination activity of a lectin solution of titer 4 in [3] is 62.5 µg/mL; in [4] it was 15.6 µg/mL. The Kd in assay [5] is 1.21 µM. The koff in assay [5] was 0.0433 s⁻¹. In addition, the kon in assay [5] stood at 35600 M⁻¹ s⁻¹. Also, the stoichiometry N in [6] was 2.
